The source of these data is patent publication US20260265321A1, “PEPTIDE AND POLYPEPTIDE INHIBITING THE NF-KB SIGNALING PATHWAY” (Centre National de la Recherche Scientifique, priority 2023, published 2026).

B1: G1-IKKα, full-length wt IKKα fused to the Gluc1 fragment (enzyme, human, UniProt O15111 1-745, looked up)
chain: MERPPGLRPGAGGPWEMRERLGTGGFGNVCLYQHRELDLKIAIKSCRLELSTKNRERWCHEIQIMKKLNHANVVKACDVPEELNILIHDVPLLAMEYCSGGDLRKLLNKPENCCGLKESQILSLLSDIGSGIRYLHENKIIHRDLKPENIVLQDVGGKIIHKIIDLGYAKDVDQGSLCTSFVGTLQYLAPELFENKPYTATVDYWSFGTMVFECIAGYRPFLHHLQPFTWHEKIKKKDPKCIFACEEMSGEVRFSSHLPQPNSLCSLVVEPMENWLQLMLNWDPQQRGGPVDLTLKQPRCFVLMDHILNLKIVHILNMTSAKIISFLLPPDESLHSLQSRIERETGINTGSQELLSETGISLDPRKPASQCVLDGVRGCDSYMVYLFDKSKTVYEGPFASRSLSDCVNYIVQDSKIQLPIIQLRKVWAEAVHYVSGLKEDYSRLFQGQRAAMLSLLRYNANLTKMKNTLISASQQLKAKLEFFHKSIQLDLERYSEQMTYGISSEKMLKAWKEMEEKAIHYAEVGVIGYLEDQIMSLHAEIMELQKSPYGRRQGDLMESLEQRAIDLYKQLKHRPSDHSYSDSTEMVKIIVHTVQSQDRVLKELFGHLSKLLGCKQKIIDLLPKVEVALSNIKEADNTVMFMQGKRQKEIWHLLKIACTQSSARSLVGSSLEGAVTPQTSAWLPPTSAEHDHSLSCVVTPQDGETSAQMIEENLNCLGHLSTIIHEANEEQGNSMMNLDWSWLTE
notes: Expressed in HEK293T cells for GPCA; full-length; also called Gluc1-IKKα; not shown: Gluc1 fragment of Gaussia princeps luciferase and flexible 20 amino acid linker, N-terminal

Assay [1] has as its target T1, G2-p100 1-852 (UniProt Q00653 1-852).
T1 construct: range 1-852; not shown: Gluc2 fragment of Gaussia princeps luciferase and flexible 20 amino acid linker, N-terminal
T1 sequence (looked up): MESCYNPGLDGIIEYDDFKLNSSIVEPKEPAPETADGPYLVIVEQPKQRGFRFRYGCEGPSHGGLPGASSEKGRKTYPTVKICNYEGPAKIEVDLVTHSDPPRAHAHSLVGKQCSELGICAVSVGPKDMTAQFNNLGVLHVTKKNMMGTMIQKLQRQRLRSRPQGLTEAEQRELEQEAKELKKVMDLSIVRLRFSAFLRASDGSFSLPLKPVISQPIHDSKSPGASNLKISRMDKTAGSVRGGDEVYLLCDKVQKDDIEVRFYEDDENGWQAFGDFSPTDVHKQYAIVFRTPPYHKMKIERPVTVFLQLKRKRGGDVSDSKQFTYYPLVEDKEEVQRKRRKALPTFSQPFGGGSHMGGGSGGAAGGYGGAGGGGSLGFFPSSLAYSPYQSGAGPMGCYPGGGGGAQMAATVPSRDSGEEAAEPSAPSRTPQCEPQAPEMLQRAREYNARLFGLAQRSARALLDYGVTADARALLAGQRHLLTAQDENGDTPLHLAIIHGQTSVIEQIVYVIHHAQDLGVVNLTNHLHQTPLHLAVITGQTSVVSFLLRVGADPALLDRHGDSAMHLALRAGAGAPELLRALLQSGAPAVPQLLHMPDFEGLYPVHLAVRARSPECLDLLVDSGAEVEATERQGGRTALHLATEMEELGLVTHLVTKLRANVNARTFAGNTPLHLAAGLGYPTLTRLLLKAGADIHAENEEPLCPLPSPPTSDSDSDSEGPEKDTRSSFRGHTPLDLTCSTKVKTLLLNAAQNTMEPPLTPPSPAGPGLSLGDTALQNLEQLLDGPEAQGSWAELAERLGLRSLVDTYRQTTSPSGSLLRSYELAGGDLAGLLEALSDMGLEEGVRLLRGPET
As to the kind of experiment: GPCA (Gaussia princeps protein complementation assay), G1-IKKα FL with G2-p100 constructs, NLR. Here is the method:
(§1) HEK293T cells were transfected using the reverse transfection method. Transfection mixes containing 100 ng of pSPICA-N2 and 100 ng of pSPICA-N1 plasmids expressing test proteins plus JetPEI® (Polyplus transfection) were dispensed in white 96-well plates. HEK293T cells were then seeded on the DNA mixes at a concentration of 4.2×10^4 cells per well. 48 hours after transfection, cells were washed with 50 μl of PBS and lysed with 40 μl of Renilla lysis buffer (Promega, E2820) for 30 minutes with agitation. Gaussia princeps luciferase enzymatic activity was measured using a Berthold Centro LB960 luminometer by injecting 50 μl per well of luciferase substrate reagent (Promega, E2820) and counting luminescence for 10 seconds. Results are expressed as a fold change normalized over the sum of controls, specified herein as normalized luminescence ratio (NLR) 29. For a given protein pair A/B, NLR=(Gluc1-A+Gluc2-B)/[(Gluc1-A+Gluc2)+(Gluc1+Gluc2-B)]. All interactions were measured in three independent experiments, with each experiment being carried out in triplicate. The expression levels of Gluc1- and Gluc2-fused proteins were checked by Western blotting. 24 hours post-transfection, HEK293T cells were collected, lysed by incubation on ice and centrifuged. Aliquots of cleared supernatants were loaded onto an 10% SDS-PAGE gel.

For assay [2], the target named is B1. The assay is described as above. Here is the method: as §1
Assay [3] addresses T2, IKKα(10-667) S176E/S180E homodimer, 6×His tag removed (human, UniProt O15111 10-667).
T2 construct: also called purified IKKα
T2 sequence (looked up): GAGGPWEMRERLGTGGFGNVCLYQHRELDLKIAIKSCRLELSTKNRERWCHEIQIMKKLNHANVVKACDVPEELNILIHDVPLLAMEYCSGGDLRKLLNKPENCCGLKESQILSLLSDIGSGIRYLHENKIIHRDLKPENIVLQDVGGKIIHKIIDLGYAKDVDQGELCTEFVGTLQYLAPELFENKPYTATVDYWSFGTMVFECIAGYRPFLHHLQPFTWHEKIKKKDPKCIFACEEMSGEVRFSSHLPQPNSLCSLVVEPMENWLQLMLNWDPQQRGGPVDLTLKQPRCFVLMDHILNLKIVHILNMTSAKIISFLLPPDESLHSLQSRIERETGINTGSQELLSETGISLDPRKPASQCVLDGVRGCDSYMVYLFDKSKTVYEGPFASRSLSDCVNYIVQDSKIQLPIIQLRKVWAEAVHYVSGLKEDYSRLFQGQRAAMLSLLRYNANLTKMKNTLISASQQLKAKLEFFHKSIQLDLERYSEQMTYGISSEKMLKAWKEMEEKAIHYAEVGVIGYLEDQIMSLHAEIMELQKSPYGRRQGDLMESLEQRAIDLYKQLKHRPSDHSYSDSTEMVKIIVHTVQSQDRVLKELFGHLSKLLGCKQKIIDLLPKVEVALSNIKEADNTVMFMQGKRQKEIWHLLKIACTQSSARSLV
The assay can be described thus: ITC. Here is the method: (§2) All experiments were performed in ITC buffer (20 mM HEPES pH 8.0, 150 mM NaCl, 1 mM TCEP) unless otherwise stated. […] Just before the ITC experiments, IKKα or IKKβ samples were concentrated, incubated at room temperature for 30 minutes and centrifuged at 11000 g to remove eventual precipitate. The final concentrations of IKKα and IKKβ in the sample cell varied between 22 and 50 μM depending on the measurement. […] The concentration of peptides in the syringe varied between 220 and 975 μM depending on the measurement.
(§3) All ITC experiments were performed at 25° C. The data were fitted to a 1:1 binding model. […] All data were processed using NITPIC software and global fitting of two datasets was carried out using SEDPHAD.
Background: In ITC the heat of successive injections is recorded.

In assay [4] the target is T3, IKKβ(1-669) S177E/S181E homodimer, 6×His tag removed (human, UniProt O14920 1-669).
T3 sequence (looked up): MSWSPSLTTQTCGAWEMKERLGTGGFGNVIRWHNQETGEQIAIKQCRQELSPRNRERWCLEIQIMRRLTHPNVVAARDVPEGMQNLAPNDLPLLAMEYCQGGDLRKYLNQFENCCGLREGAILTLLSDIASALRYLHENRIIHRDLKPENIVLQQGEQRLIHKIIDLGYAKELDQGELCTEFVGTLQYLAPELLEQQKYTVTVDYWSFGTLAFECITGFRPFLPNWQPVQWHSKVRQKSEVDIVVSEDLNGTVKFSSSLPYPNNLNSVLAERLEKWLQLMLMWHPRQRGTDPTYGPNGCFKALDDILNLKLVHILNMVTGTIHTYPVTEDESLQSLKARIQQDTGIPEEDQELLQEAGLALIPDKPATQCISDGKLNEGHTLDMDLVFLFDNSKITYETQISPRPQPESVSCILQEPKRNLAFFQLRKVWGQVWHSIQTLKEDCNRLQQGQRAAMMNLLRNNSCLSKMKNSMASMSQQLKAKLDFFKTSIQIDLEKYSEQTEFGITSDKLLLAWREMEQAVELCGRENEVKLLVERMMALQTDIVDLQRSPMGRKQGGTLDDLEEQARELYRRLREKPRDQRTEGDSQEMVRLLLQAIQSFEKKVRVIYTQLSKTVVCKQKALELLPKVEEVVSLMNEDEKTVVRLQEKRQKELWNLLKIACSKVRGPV
The assay can be described thus: ITC. Here is the method: as §2, §3

In assay [5] the target is T2, IKKα(10-667) S176E/S180E homodimer, …. As to the kind of experiment: ITC, 25 °C, synthetic peptide into IKK homodimer, 1:1 model. Here is the method: as §2, §3
Assay [6] addresses T3, IKKβ(1-669) S177E/S181E homodimer, …. Described as above. Here is the method:
as §2, §3

Consider B1, for which, in assay [1], the binding result was “binds”.

B2: FL YD/SS (other)
chain: MESCYNPGLDGIIESDSFKLNSSIVEPKEPAPETADGPYLVIVEQPKQRGFRFRYGCEGPSHGGLPGASSEKGRKTYPTVKICNYEGPAKIEVDLVTHSDPPRAHAHSLVGKQCSELGICAVSVGPKDMTAQFNNLGVLHVTKKNMMGTMIQKLQRQRLRSRPQGLTEAEQRELEQEAKELKKVMDLSIVRLRFSAFLRASDGSFSLPLKPVISQPIHDSKSPGASNLKISRMDKTAGSVRGGDEVYLLCDKVQKDDIEVRFYEDDENGWQAFGDFSPTDVHKQYAIVFRTPPYHKMKIERPVTVFLQLKRKRGGDVSDSKQFTYYPLVEDKEEVQRKRRKALPTFSQPFGGGSHMGGGSGGAAGGYGGAGGGGSLGFFPSSLAYSPYQSGAGPMGCYPGGGGGAQMAATVPSRDSGEEAAEPSAPSRTPQCEPQAPEMLQRAREYNARLFGLAQRSARALLDYGVTADARALLAGQRHLLTAQDENGDTPLHLAIIHGQTSVIEQIVYVIHHAQDLGVVNLTNHLHQTPLHLAVITGQTSVVSFLLRVGADPALLDRHGDSAMHLALRAGAGAPELLRALLQSGAPAVPQLLHMPDFEGLYPVHLAVRARSPECLDLLVDSGAEVEATERQGGRTALHLATEMEELGLVTHLVTKLRANVNARTFAGNTPLHLAAGLGYPTLTRLLLKAGADIHAENEEPLCPLPSPPTSDSDSDSEGPEKDTRSSFRGHTPLDLTCSTKVKTLLLNAAQNTMEPPLTPPSPAGPGLSLGDTALQNLEQLLDGPEAQGSWAELAERLGLRSLVDTYRQTTSPSGSLLRSYELAGGDLAGLLEALSDMGLEEGVRLLRGPETRDKLPSTAEVKEDSAYGSQSVEQEAEKLGPPPEPPGGLCHGHPQPQVH
notes: also called G2-p100 FL YD/SS; G2-p100 FL Y15S/D17S; not shown: N-terminal Gluc2 fragment of Gaussia princeps luciferase and the flexible 20 amino acid linker (pSPICA-N2)
With B2, the binding result in assay [2] is “binds”.

B3: synthetic IκBα pep C308L (peptide)
peptide: EFTEDELPYDDLVFGGQRLTL
notes: also called C308L IκBα pep; IkBα pep C308L
For orientation: Kd means the equilibrium constant for the complex coming apart. High values mean weaker binding, low ones tighter binding. In the case of B3, in assay [3], the “fold enhancement of affinity against IκBα pep wt” value was 25 fold. The “fold enhancement of affinity against IκBα pep wt” value in assay [4] stood at 15 fold. Also, in assay [5], binding was put at a Kd of 350 nM, the “N (binding stoichiometry)” value is 0.65, the TΔS was -4.71 kcal/mol and the ΔG is -8.8 kcal/mol. The same molecule had a ΔH in assay [5] of -13.5 kcal/mol. In assay [6], binding was characterised by a dissociation constant (Kd) of 2600 nM, the “N (binding stoichiometry)” value was determined as 0.63, the TΔS is -4.59 kcal/mol and the ΔG was -7.61 kcal/mol. For the same molecule, the ΔH in assay [6] was -12.2 kcal/mol.
